The target in assay [1] is TRIM32 extended RING domain (UniProt Q13049). The assay can be described thus: SEC-MALS; SEC-MALLS, Superdex 75 or Superdex 200 10/300 GL, 25°C, 20 mM HEPES pH 7.5, 100 mM NaCl (TRIM32) or 150 mM NaCl (TRIM25), 0.5 mM TCEP, 3 mM NaN3; samples run over a range of concentrations.
Assay [2] has the same target. Description: SAXS; batch SAXS, Diamond Light Source beamline B21; at least three dilutions of each construct; concentrations as in Table 2.

TRIM32 extended RING domain (from UniProt Q13049 1-93) (domain or fragment), sequence (Q13049 1-93): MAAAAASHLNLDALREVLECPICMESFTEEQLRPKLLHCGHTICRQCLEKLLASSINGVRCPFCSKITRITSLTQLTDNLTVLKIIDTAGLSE

With “TRIM32 extended RING domain (from UniProt Q13049 1-93) (domain or fragment)”, the stoichiometry N in assay [1] and in assay [2] was 2 each time.

The record behind these values is PMC4864278.
